Test results taken from PMC5971062 (Biochemistry, 2018).

Target: T1, Enhanced intracellular survival (Eis) protein from Mycobacterium tuberculosis, wild type (Mycobacterium tuberculosis, UniProt P9WFK7)
T1 sequence: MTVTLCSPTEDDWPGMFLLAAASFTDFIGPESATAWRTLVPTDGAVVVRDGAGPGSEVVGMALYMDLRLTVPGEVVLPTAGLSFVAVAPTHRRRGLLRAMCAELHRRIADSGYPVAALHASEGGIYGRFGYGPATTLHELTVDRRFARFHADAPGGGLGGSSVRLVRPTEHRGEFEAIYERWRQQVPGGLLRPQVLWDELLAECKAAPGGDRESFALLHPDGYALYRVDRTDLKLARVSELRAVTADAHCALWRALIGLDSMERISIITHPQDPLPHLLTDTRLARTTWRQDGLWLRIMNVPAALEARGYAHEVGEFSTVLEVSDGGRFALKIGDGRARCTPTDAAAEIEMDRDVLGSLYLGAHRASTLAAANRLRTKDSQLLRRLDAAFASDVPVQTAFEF
Assay: crystal structure

ATKAPAKKA [HupB_Mtb 9-mer peptide ATKAPAKKA]
binding result: binds
